Patent US20250197467A1

Molecular target: His-tagged human IL-18BP (human) (UniProt O95998)
Assay: AlphaLISA of free IL-18BP

His-tagged human IL-18BP (human), sequence (O95998 31-194): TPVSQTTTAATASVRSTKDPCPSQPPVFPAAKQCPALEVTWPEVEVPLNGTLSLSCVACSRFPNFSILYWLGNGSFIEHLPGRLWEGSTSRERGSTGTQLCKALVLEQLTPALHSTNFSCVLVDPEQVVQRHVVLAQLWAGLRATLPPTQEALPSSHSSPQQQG

| Binder | Kd [nM] |
| --- | --- |
| C324 + MMP9 (ligand) YFGKLKSKLSIIRNLNDQVLFIDQGNRPLFEDMTDSDARDNAPRTIFIISMYADSQPRGMAVAISVKCEKISTLSAENKIISFKEMNPPDNIKDTKSDIIFFQRSVPGHDNKMQFESSSYEGYFLAAEKERDLFKLILKKEDELGDRSIMFTVQNED | 36.5 |
| C316 + Matriptase (ligand) MAAEPVEDNSINFVAMKFIDNTLYFIAEDDENLESDSGRVANLVGYFGKLKSKLSIIRNLNDQVLFIDQGNRPLFEDMTDSDARDNAPRTIFIISMYADSQPRGMAVAISVKCEKISTLSAENKIISFKEMNPPDNIKDTKSDIIFFQRSVPGHDNKMQFESSSYEGYFLAAEKERDLFKLILKKEDELGDRSIMFTVQNED | 723 |
| C323 (ligand) MAAEPVEDNSINFVAMKFIDNTLYFIAEDDENLESDRGRRVANLVGGSGYFGKLKSKLSIIRNLNDQVLFIDQGNRPLFEDMTDSDARDNAPRTIFIISMYADSQPRGMAVAISVKCEKISTLSAENKIISFKEMNPPDNIKDTKSDIIFFQRSVPGHDNKMQFESSSYEGYFLAAEKERDLFKLILKKEDELGDRSIMFTVQNED | 8550 |
| C325 (ligand) MAAEPVEDNSINFVAMKFIDNTLYFIAEDDENLESDRGRRPLGLAGGSGYFGKLKSKLSIIRNLNDQVLFIDQGNRPLFEDMTDSDARDNAPRTIFIISMYADSQPRGMAVAISVKCEKISTLSAENKIISFKEMNPPDNIKDTKSDIIFFQRSVPGHDNKMQFESSSYEGYFLAAEKERDLFKLILKKEDELGDRSIMFTVQNED | 1880 |
| C325 + MMP9 (ligand) LAGGSGYFGKLKSKLSIIRNLNDQVLFIDQGNRPLFEDMTDSDARDNAPRTIFIISMYADSQPRGMAVAISVKCEKISTLSAENKIISFKEMNPPDNIKDTKSDIIFFQRSVPGHDNKMQFESSSYEGYFLAAEKERDLFKLILKKEDELGDRSIMFTVQNED | 158 |

Continued by falling Kd, values first:

| Kd [nM] | Binder |
| --- | --- |
| 2100 | C326 (ligand) MAAEPVEDNSINFVAMKFIDNTLYFIAEDDENLESDRGRRVANPLGLAGSGYFGKLKSKLSIIRNLNDQVLFIDQGNRPLFEDMTDSDARDNAPRTIFIISMYADSQPRGMAVAISVKCEKISTLSAENKIISFKEMNPPDNIKDTKSDIIFFQRSVPGHDNKMQFESSSYEGYFLAAEKERDLFKLILKKEDELGDRSIMFTVQNED |
| 586 | C318 + Matriptase (ligand) MAAEPVEDNSINFVAMKFIDNTLYFIAEDDENLESDSGRVANYFGKLKSKLSIIRNLNDQVLFIDQGNRPLFEDMTDSDARDNAPRTIFIISMYADSQPRGMAVAISVKCEKISTLSAENKIISFKEMNPPDNIKDTKSDIIFFQRSVPGHDNKMQFESSSYEGYFLAAEKERDLFKLILKKEDELGDRSIMFTVQNED |
| 139 | C326 + MMP9 (ligand) LAGSGYFGKLKSKLSIIRNLNDQVLFIDQGNRPLFEDMTDSDARDNAPRTIFIISMYADSQPRGMAVAISVKCEKISTLSAENKIISFKEMNPPDNIKDTKSDIIFFQRSVPGHDNKMQFESSSYEGYFLAAEKERDLFKLILKKEDELGDRSIMFTVQNED |
